The values below come from patent US20110152352A1 (TUFTS UNIVERSITY, published 2011).

To fix the notation:
B3: RNA helicase p68 (human p68 cDNA construct, expressed in transfected Cos7 cells) (enzyme, UniProt P17844 1-614, looked up)
chain: MSGYSSDRDRGRDRGFGAPRFGGSRAGPLSGKKFGNPGEKLVKKKWNLDELPKFEKNFYQEHPDLARRTAQEVETYRRSKEITVRGHNCPKPVLNFYEANFPANVMDVIARQNFTEPTAIQAQGWPVALSGLDMVGVAQTGSGKTLSYLLPAIVHINHQPFLERGDGPICLVLAPTRELAQQVQQVAAEYCRACRLKSTCIYGGAPKGPQIRDLERGVEICIATPGRLIDFLECGKTNLRRTTYLVLDEADRMLDMGFEPQIRKIVDQIRPDRQTLMWSATWPKEVRQLAEDFLKDYIHINIGALELSANHNILQIVDVCHDVEKDEKLIRLMEEIMSEKENKTIVFVETKRRCDELTRKMRRDGWPAMGIHGDKSQQERDWVLNEFKHGKAPILIATDVASRGLDVEDVKFVINYDYPNSSEDYIHRIGRTARSTKTGTAYTFFTPNNIKQVSDLISVLREANQAINPKLLQLVEDRGSGRSRGRGGMKDDRRDRYSAGKRGGFNTFRDRENYDRGYSSLLKRDFGAKTQNGVYSAANYTNGSFGSNFVSAGIQTSFRTGNPTGTYQNGYDSTQQYGSNVPNMHNGMNQQAYAYPATAAAPMIGYPMPTGYSQ
notes: Present in nuclear extracts or total lysates of Cos7 cells transfected with the p68 construct; also called Ddx5; DDX5

Assay [1] addresses B3. As to the kind of experiment: GST pull-down from nuclear extracts of p68-transfected Cos7 cells, immunoblot with anti-p68. A general note: A western blot detects proteins with antibodies after separation by electrophoresis.
Assay [2] addresses B3. Briefly: in vitro pull-down, data not shown.
Assay [3] deals with T1, GST-Smad4(FL) fusion protein (UniProt P08515 1-218 = GST; Q13485 1-552).
T1 construct: also called s4
As to the kind of experiment: GST pull-down from nuclear extracts of p68-transfected Cos7 cells, immunoblot with anti-p68.

T1 sequence (P08515 1-218, tags or fused parts left off): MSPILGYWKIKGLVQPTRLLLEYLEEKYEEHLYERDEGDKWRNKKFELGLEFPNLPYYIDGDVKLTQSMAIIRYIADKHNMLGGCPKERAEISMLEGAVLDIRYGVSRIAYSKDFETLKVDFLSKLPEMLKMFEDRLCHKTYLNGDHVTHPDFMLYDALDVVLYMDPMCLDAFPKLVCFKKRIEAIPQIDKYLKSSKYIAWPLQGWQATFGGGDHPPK

B1: GST-Smad1 (MH1 domain) fusion protein (other, UniProt Q15797 12-136, looked up)
chain: PAVKRLLGWKQGDEEEKWAEKAVDALVKKLKKKKGAMEELEKALSCPGQPSNCVTIPRSLDGRLQVSHRKGLPHVIYCRVWRWPDLQSHHELKPLECCEFPFGSKQKEVCINPYHYKRVESPVLP
notes: domain: MH1; also called s1-n219; amino-terminal MH1 domain of Smad1; not shown: glutathione S-transferase (GST) tag
As to B1, the binding result in assay [1] is reported as “no binding”.

B2: inhibitor Smad6 (other, UniProt O43541 1-496, looked up)
chain: MFRSKRSGLVRRLWRSRVVPDREEGGSGGGGGGDEDGSLGSRAEPAPRAREGGGCGRSEVRPVAPRRPRDAVGQRGAQGAGRRRRAGGPPRPMSEPGAGAGSSLLDVAEPGGPGWLPESDCETVTCCLFSERDAAGAPRDASDPLAGAALEPAGGGRSREARSRLLLLEQELKTVTYSLLKRLKERSLDTLLEAVESRGGVPGGCVLVPRADLRLGGQPAPPQLLLGRLFRWPDLQHAVELKPLCGCHSFAAAADGPTVCCNPYHFSRLCGPESPPPPYSRLSPRDEYKPLDLSDSTLSYTETEATNSLITAPGEFSDASMSPDATKPSHWCSVAYWEHRTRVGRLYAVYDQAVSIFYDLPQGSGFCLGQLNLEQRSESVRRTRSKIGFGILLSKEPDGVWAYNRGEHPIFVNSPTLDAPGGRALVVRKVPPGYSIKVFDFERSGLQHAPEPDAADGPYDPNSVRISFAKGWGPCYSRQFITSCPCWLEILLNNPR
For the molecule B2, the binding result in assay [2] is “no binding”. On to B3, for which the binding result in assay [3] was “no binding”.
